Values of other authors, collected in paper PMC6716120.

Biological target: hexon (Human adenovirus 5) (UniProt P04133)
Sequence (P04133 2-952): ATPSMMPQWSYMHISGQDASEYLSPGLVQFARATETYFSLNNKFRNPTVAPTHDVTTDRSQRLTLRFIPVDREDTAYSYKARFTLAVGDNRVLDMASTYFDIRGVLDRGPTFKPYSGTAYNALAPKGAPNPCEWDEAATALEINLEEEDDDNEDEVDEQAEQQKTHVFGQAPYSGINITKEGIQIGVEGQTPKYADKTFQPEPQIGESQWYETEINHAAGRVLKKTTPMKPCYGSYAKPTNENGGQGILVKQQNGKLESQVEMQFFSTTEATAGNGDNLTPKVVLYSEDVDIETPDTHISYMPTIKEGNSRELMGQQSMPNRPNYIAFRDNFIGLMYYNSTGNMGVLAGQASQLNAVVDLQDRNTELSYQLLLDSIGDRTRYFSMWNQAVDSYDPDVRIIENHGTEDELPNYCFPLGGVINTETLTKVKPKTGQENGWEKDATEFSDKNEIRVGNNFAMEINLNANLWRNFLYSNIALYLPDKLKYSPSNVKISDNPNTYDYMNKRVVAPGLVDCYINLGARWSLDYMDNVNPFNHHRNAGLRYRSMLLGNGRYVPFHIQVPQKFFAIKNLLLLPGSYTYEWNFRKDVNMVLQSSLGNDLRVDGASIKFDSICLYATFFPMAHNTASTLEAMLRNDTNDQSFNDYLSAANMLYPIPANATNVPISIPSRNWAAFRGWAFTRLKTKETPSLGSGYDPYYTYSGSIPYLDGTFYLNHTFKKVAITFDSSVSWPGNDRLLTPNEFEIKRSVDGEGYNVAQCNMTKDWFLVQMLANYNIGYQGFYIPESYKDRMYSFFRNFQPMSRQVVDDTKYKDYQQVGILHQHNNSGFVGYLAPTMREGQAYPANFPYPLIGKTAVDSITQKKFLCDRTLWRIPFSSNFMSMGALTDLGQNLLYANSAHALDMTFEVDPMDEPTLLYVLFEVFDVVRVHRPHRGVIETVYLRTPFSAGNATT

Sequence of coagulation factor X (P00742 41-488): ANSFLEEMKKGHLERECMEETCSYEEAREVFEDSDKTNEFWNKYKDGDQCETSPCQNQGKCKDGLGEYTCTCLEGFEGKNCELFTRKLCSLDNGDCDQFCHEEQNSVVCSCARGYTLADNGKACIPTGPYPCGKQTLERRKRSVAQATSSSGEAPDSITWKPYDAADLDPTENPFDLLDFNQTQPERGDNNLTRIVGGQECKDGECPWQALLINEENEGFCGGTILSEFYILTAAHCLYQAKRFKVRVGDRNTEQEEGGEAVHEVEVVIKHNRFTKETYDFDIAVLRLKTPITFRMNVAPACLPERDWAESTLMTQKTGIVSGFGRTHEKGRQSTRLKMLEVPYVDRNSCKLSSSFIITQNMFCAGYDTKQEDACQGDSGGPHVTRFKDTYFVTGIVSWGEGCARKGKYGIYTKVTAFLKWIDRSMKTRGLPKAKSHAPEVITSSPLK

coagulation factor X (from UniProt P00742)
Kd: 2 nM
